Laboratory results reported in PMC5806882, “Structural and biochemical characterization of the biuret hydrolase (BiuH) from the cyanuric acid catabolism pathway of Rhizobium leguminasorum bv. viciae 3841” (PLoS ONE, 2018).

Columns and labels:
NC(=O)NC(N)=O [1] = tested on: T1, NC(=O)NC(N)=O; assay: GDH-coupled steady-state kinetics (KM); type: biochemical, Rhizobium johnstonii; details: active site
T1 construct: wild type, N-terminal 6xHis-tag

NC(=O)NC(N)=O [2] = assay: GDH-coupled steady-state kinetics (KM); type: biochemical, Rhizobium johnstonii; details: active site

biuret hydrolase (BiuH) (Rhizobium johnstonii 3841; K142R), sequence (chain, as listed by the source K142R): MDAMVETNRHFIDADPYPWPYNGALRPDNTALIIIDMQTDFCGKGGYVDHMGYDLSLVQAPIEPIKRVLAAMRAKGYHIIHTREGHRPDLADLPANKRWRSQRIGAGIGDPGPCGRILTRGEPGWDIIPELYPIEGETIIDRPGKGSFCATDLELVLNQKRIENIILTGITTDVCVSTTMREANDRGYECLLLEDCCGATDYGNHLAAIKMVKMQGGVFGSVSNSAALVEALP
biuret hydrolase (BiuH) (Rhizobium johnstonii 3841), sequence (chain, as listed by the source): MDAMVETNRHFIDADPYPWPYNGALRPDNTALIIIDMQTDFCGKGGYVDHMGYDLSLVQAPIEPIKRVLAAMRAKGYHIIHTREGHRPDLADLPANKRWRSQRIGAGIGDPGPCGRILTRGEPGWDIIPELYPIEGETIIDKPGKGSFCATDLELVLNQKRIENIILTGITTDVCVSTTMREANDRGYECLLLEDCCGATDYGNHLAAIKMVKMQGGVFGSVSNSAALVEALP
biuret hydrolase (BiuH) (Rhizobium johnstonii 3841; Q215N), sequence (chain, as listed by the source Q215N): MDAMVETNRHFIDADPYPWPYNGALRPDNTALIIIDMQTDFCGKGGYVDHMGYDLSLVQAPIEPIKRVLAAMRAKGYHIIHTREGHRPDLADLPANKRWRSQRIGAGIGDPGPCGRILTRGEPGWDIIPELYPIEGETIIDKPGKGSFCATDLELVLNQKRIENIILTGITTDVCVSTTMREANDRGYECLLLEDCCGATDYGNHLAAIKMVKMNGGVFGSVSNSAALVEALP
biuret hydrolase (BiuH) (Rhizobium johnstonii 3841; F41W), sequence (chain, as listed by the source F41W): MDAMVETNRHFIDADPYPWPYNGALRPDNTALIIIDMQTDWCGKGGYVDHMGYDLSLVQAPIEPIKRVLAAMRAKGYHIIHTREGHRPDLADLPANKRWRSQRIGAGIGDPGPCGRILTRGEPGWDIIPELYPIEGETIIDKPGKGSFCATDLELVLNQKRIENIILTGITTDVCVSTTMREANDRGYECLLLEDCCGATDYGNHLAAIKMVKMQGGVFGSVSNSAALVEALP

| Substance | Km (NC(=O)NC(N)=O [1]) | kcat (NC(=O)NC(N)=O [1]) | kcat/Km (NC(=O)NC(N)=O [1]) | Km (NC(=O)NC(N)=O [2]) | kcat (NC(=O)NC(N)=O [2]) | kcat/Km (NC(=O)NC(N)=O [2]) |
| --- | --- | --- | --- | --- | --- | --- |
| biuret hydrolase (BiuH) (Rhizobium johnstonii 3841) | 79 ± 7 µM | 11.9 ± 0.3 s⁻¹ | 150000 M⁻¹ s⁻¹ |  |  |  |
| biuret hydrolase (BiuH) (Rhizobium johnstonii 3841; F41W) |  |  |  | 127 ± 8 µM | 0.26 ± 0.003 s⁻¹ | 2050 M⁻¹ s⁻¹ |
| biuret hydrolase (BiuH) (Rhizobium johnstonii 3841; K142R) |  |  |  | 139 ± 8 µM | 0.07 ± 0.001 s⁻¹ | 504 M⁻¹ s⁻¹ |
| biuret hydrolase (BiuH) (Rhizobium johnstonii 3841; Q215N) |  |  |  | 48 ± 2 µM | 0.19 ± 0.002 s⁻¹ | 3960 M⁻¹ s⁻¹ |
